Values of other authors in article PMC10451079.
One block for each substance: values may come before it.

What was measured:
NGALR (Mus musculus) = NGALR (Mus musculus) (UniProt Q9D9E0); assay: ligand-cell binding, Scatchard
MC3R = MC3R (UniProt P41968)
MC1R = MC1R (UniProt Q01726)
MC4R = MC4R (UniProt P32245); assay: saturation and competition binding
[1] = target: LRP2 (megalin) (Homo sapiens) (UniProt P98164); assay: SPR
[2] = target: NGALR 1-105 (Homo sapiens) (UniProt Q8WUG5)
megalin (Homo sapiens) = megalin (Homo sapiens) (UniProt P98164)

Sequence of UniProt P41968 (P41968 whole entry): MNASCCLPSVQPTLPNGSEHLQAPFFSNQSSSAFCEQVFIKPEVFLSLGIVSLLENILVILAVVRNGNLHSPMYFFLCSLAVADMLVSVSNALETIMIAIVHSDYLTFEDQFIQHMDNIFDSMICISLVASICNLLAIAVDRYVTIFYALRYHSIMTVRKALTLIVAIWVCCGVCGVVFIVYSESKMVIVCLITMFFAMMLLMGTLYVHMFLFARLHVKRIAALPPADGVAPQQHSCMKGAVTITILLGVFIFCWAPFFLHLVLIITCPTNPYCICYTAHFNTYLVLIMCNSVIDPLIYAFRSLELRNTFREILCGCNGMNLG
Sequence of UniProt Q01726 (Q01726 whole entry): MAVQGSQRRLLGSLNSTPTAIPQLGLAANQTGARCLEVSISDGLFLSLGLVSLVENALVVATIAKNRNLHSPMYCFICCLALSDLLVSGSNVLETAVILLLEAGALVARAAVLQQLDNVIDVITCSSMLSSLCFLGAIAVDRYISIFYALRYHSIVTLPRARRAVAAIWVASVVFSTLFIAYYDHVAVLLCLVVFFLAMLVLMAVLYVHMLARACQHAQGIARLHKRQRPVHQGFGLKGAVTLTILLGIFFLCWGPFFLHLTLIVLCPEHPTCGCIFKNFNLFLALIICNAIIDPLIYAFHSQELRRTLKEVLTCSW
Sequence of UniProt Q8WUG5 (Q8WUG5 1-105): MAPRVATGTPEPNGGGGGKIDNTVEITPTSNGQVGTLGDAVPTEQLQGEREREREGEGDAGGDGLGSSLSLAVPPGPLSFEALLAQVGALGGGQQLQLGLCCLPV
Sequence of UniProt Q9D9E0 (Q9D9E0 whole entry): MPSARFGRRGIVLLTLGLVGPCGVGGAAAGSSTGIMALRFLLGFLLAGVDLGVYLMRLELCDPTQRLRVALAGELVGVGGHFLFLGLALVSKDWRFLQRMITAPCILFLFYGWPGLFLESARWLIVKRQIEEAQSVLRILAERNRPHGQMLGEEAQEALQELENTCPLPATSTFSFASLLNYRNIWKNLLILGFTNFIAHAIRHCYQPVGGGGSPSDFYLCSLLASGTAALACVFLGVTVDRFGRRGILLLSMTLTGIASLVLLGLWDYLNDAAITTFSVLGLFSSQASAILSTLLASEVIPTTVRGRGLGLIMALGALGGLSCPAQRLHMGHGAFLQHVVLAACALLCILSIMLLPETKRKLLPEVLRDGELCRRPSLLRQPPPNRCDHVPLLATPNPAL
Sequence of UniProt P32245 (P32245 whole entry): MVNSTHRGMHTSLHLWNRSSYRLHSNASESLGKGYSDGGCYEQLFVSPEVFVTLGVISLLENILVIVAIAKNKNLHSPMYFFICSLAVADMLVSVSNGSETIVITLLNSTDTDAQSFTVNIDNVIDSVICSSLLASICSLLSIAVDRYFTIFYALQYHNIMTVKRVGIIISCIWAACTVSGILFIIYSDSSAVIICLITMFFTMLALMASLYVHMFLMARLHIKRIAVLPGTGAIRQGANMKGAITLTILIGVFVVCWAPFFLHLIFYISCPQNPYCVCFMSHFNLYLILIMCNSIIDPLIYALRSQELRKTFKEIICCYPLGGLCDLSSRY

Kd (NGALR (Mus musculus)): 0.092 nM
Substance: LCN2 (24p3) (from UniProt P11672)

Kd (MC3R): 82.1 nM
Kd (MC1R): 87 nM
Kd (MC4R): 51.4 nM
Substance: LCN2 (from UniProt P11672)

Continued, substance first:

Substance: LCN2 (from UniProt P80188)
Kd [1]: 60 nM

Substance: LCN2 with ferric-enterobactin (from UniProt P80188)
Kd [2]: 20000 nM

Substance: α1M (from UniProt P02760)
Kd (megalin (Homo sapiens)): 420 nM
